According to patent US20050244864A1, “Development and use of fluorescent probes of unbound analytes” (priority 2004, published 2005):

How the values were obtained:
[1] = Screening of FFA-insensitive probes for response to UCB:BSA complexes (ΔI/Io); assay type: binding; conditions: fractional change in fluorescence intensity
Description: A probe for unbound unconjugated bilirubin (UCBu) was developed and used to measure concentrations of UCBu in plasma spiked with a defined quantity of unconjugated bilirubin (UCB). Using 384-well plates, 335 mutant probes that were insensitive to FFA were screened for their response to UCB:BSA complexes at UCB:BSA ratios of 1:1 and 1:2 in aqueous buffer. All probes were prepared from rI-FABP-L72A with 1 to 5 mutations. Screening was conducted by comparing the fractional change in fluorescence intensity (ΔI/Io, where ΔI is the difference in probe intensity in the presence and absence of UCB and Io is the intensity in the absence of UCB) for the probes with that for ADIFAB2. This value was calculated for two emission wavelengths: 440 and 500 nm. […] The emitted fluorescence of these probes is quenched by binding of UCB.

[2] = Probe calibration: binding affinities for fatty acids
Description: In a preferred embodiment, the template FABP is recombinant rat intestinal fatty acid binding protein (rI-FABP). Derivatization with acrylodan is performed using known methods substantially as previously described (U.S. Pat. No. 5,470,714 & Richieri, G. V, et al., J. Biol. Chem., (1992) 276: 23495-23501), and the resulting probe (ADIFAB) is commercially available (FFA Sciences LLC, San Diego, Calif.). […] The wavelength emitted by the fluorescently-labeled FABP depends upon the label and protein used. In an alternate preferred embodiment, the template protein is rI-FABP that has Ala substituted for Leu at position 72 (rI-FABP-L72A) with the resulting probe named ADIFAB2. […] Experiments typically involve measuring the fluorescence response within both emission maxima or at wavelengths for which the effect of interfering molecules such as hemoglobin can be eliminated as described in (U.S. application Ser. No. 10/670,958 and PCT/US2004/030521) and the calculation of the ratio ‘R’ of the two fluorescence intensities. The baseline value for this ratio, measured in the absence of analyte, is designated R0.
For each probe considered to have a useful phenotype, the sequence is determined, milligram quantities of the probe are prepared and the probe is calibrated. […] Spectra of probes were analyzed for true ratio behavior. […]

B1: ADIFAB2: rI-FABP with Ala substituted for Leu at position 72 (rI-FABP-L72A), derivatized with acrylodan; reference probe (protein, UniProt P02693 2-132, looked up, variant L72A)
Fatty acid-binding protein, …: AFDGTWKVDRNENYEKFMEKMGINVVKRKLGAHDNLKLTITQEGNKFTVKESSNFRNIDVVFELGVDFAYSAADGTELTGTWTMEGNKLVGKFKRVDNGKELIAVREISGNELIQTYTYEGVEAKRIFKKE
modifications: acrylodan label
For B1, the “ΔI/Io 1:1 UCB:BSA 440 nm” value ([1]; UCB:BSA 1:1, emission 440 nm) was −0.40, the “ΔI/Io 1:1 UCB:BSA 500 nm” value ([1]; UCB:BSA 1:1, emission 500 nm) was −0.34 and the “ΔI/Io 1:2 UCB:BSA 440 nm” value ([1]; UCB:BSA 1:2, emission 440 nm) was −0.19. For the same molecule, the “ΔI/Io 1:2 UCB:BSA 500 nm” value ([1]; UCB:BSA 1:2, emission 500 nm) was −0.16 and the “binding affinities relative to ADIFAB” value [2] was “about 10 fold”.
